In paper PMC12638815, “Targeting ACE2 with a camelid antibody inhibits SARS-CoV-2 binding and has protective effects in vivo” (Nature Communications, 2025):
Positions count from the first letter of the chain named.

B1: VHH B10 (VHH)
VHH: QVQLVESGGGLVQAGDSLRLSCAASGRTFSSYAMGWFRQALGKEREFVAVISGSGTSTYYTDSVKGRFTISRDNAKNTVYLQMNSLKPEDTAVYYCARAKGFSTIYNQDEGRYDYWGQGTQVTVSS
notes: alpaca VHH from phage display (gene IGHV3-3); also called anti-hACE2 VHH B10; source: E. coli TG1 periplasm, purified (His pure Cobalt sepharose beads); not shown: c-myc, C-terminal, kept; His, C-terminal, kept
B2: VHH B07 (VHH)
VHH: EVQLQASGGGLVQAGGSLRLSCAASRSTFSTNTIGWYRQAPGKQRELVASISTSGNTYYPDSVKGRFAISRDNAENTVYLQMNSLKPEDTAVYYCNTPSRRISNFWGQGTQVTVSS
notes: alpaca VHH from phage display (gene IGHV3S53); Expressed from pHEN6 with c-myc and His tags at the C-terminal end; also called anti-hACE2 VHH B07; source: E. coli TG1 periplasm, purified (His pure Cobalt sepharose beads); not shown: c-myc, C-terminal, kept; His, C-terminal, kept
B3: VHH B09 (VHH)
VHH: B2 VHH with E1Q, Q5V, A6E, A24T, T31S, P60A
notes: No structure of B09 was solved; also called anti-hACE2 VHH B09; source: E. coli TG1 periplasm, purified (His pure Cobalt sepharose beads); not shown: c-myc, C-terminal, kept; His, C-terminal, kept
B4: endogenous ACE2 on Vero E6 cells (receptor, simian (endogenous in Vero E6))
chain: QSTIEEQAKTFLDKFNHEAEDLFYQSSLASWNYNTNITEENVQNMNNAGEKWSAFLKEQSTLAQMYPLQAIQNLTVKLQLQALQQNGSSVLSEDKSKRLNTILNTMSTIYSTGKVCNPNNPQECLLLDPGLNEIMEKSLDYNERLWAWEGWRSEVGKQLRPLYEEYVVLKNEMARANHYKDYGDYWRGDYEVNGVDGYDYNRDQLIEDVERTFEEIKPLYEHLHAYVRAKLMNAYPSYISPTGCLPAHLLGDMWGRFWTNLYSLTVPFGQKPNIDVTDAMVNQAWNAQRIFKEAEKFFVSVGLPNMTQGFWENSMLTDPGNVQKVVCHPTAWDLGKGDFRIIMCTKVTMDDFLTAHHEMGHIQYDMAYAAQPFLLRNGANEGFHEAVGEIMSLSAATPKHLKSIGLLSPDFQEDNETEINFLLKQALTIVGTLPFTYMLEKWRWMVFKGEIPKDQWMKKWWEMKREIVGVVEPVPHDETYCDPASLFHVSNDYSFIRYYTRTLYQFQFQEALCQAAKHEGPLHKCDISNSTEAGQKLLNMLKLGKSEPWTLALENVVGAKNMNVRPLLNYFEPLFTWLKDQNKNSFVGWSTDWSPYADQSIKVRISLKSALGANAYKWNDNEMYLFRSSVAYAMRQYFLENKHQTILFGEEDVRVADLKPRISFNFYVTAPKNVSDIIPRTEVEEAIRFSRSRINDAFQLNDNSLEFLGIQSTLIPPYQSPVTTWLIVFGVVMAVIVAGIVVLIFTGIRDRKKKNQARSEENPYASIDISKGENNPGFQNTDDVQTSF
notes: ACE2 endogenously expressed by the simian kidney cell line Vero E6; also called non-human ACE2 (Vero E6); source: endogenous, Vero E6 cells

Experiments:
[1] = target: B4; test: flow cytometry on cells; cell lines with exogenous or endogenous ACE2 incubated with 10 µg/mL VHH, 60 min at 4 °C; anti-myc and fluorescent anti-mouse antibody; parental cells or a control VHH as negative controls; conditions: one partner purified
[2] = target: T1, soluble human ACE2 peptidase domain (residues 19-615), untagged (Homo sapiens, UniProt Q9BYF1); test: BLI; VHH-His immobilised on Ni-NTA biosensors, soluble hACE2 as analyte; PBS working buffer with 300 mM NaCl, pH 7.2, 30 °C; 1:1 fit, apparent KD; conditions: both partners purified
T1 construct: human ACE2 peptidase domain, residues 19-615, secreted with an IgK signal peptide; Residues of the thrombin site may remain at the C-terminus after cleavage; also called sACE2; soluble hACE2; source: Expi293F cells with kifunensine, purified (Streptactin, SEC, thrombin cleavage, SEC); not shown: His8, C-terminal, cleaved; Strep, C-terminal, cleaved

[3] = target: T2, hACE2 peptidase domain fused to a human Fc from IgG (Homo sapiens, UniProt Q9BYF1); test: BLI; hACE2-Fc immobilised on AHC biosensors (1 µg/mL), monomeric VHHs as analytes; PBS working buffer with 300 mM NaCl, pH 7.2, 30 °C; global 1:1 fit, apparent KD; conditions: both partners purified
T2 construct: human angiotensin-converting enzyme 2, peptidase domain; also called hACE2-Fc; sACE2-Fc

[4] = target: T3, VHH B07-Fc (VHH B07 in fusion with the human IgG1 Fc segment) (alpaca); test: flow cytometry on cells; cell lines with exogenous or endogenous ACE2 incubated with 0.1 µg/mL VHH-Fc, 60 min at 4 °C; fluorescent anti-human IgG antibody; conditions: one partner purified
T3 construct: also called dimeric VHH-Fc; source: Expi293 cells, transfected, purified from supernatant (HiTrap protein A, SEC Superdex 75); not shown: Fc (human IgG1; hinge, CH2 and CH3), C-terminal, kept

T1 sequence (Q9BYF1 19-615): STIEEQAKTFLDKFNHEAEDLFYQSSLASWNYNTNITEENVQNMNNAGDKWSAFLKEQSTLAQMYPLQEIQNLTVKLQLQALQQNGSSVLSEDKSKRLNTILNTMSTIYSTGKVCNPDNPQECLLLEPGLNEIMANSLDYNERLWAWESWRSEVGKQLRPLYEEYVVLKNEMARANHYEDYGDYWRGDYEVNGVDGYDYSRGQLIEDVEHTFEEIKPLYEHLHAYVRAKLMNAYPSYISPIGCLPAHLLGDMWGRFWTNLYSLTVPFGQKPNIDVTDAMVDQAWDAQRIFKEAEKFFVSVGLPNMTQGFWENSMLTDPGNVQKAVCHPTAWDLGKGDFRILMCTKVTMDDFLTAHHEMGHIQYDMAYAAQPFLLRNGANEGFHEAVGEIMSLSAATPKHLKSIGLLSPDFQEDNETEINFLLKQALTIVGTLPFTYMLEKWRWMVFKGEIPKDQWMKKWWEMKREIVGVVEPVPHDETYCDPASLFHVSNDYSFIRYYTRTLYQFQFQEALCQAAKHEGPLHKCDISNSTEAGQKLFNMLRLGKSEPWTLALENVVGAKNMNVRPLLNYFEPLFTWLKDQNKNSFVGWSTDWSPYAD

Q: Which results are given for B1?
A: binding result [1]: binds; Kd [2]: 22 nM; Kd [3]: 21 nM

Q: Does B2 bind [1]?
A: binds

Q: And the Kd [2]?
A: 1140 nM

Q: What about the Kd [3] of the same binder?
A: 242 nM

Q: Does B3 bind [1]?
A: binds

Q: What about the Kd [2] of the same binder?
A: 1960 nM

Q: What about the Kd [3] of the same binder?
A: 214 nM

Q: Does B4 bind [4]?
A: binds
